Test results as given in paper PMC9468636, “ZAT10 plays dual roles in cadmium uptake and detoxification in Arabidopsis”.

Molecular target: MBP-ZAT10 (Arabidopsis thaliana, UniProt Q96289 1-227)
Experiment: EMSA; 2 ug protein in 20 uL; EMSA/gel-shift binding 5x buffer (Beyotime; composition not stated), 20 uL, 25 C, 30 min, 12% native PAGE; protein eluted in 20 mM Tris-HCl, 100 mM NaCl, 10 mM
Details: protein: recombinant; tags: N-terminal MBP (pMAL-c4X); blunt

Chain of MBP-ZAT10 (Q96289 whole entry): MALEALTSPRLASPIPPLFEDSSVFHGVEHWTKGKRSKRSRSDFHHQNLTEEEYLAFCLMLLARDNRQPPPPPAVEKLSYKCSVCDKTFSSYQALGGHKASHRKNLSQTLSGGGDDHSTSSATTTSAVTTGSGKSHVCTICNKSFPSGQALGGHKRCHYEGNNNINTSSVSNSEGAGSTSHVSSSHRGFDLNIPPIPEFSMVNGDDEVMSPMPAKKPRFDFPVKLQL

B1: ZAT10 promoter probe (P) (dsDNA)
DNA 1: ATCGCCACCTTCACTCTTCACACTTTCCTACCACTTGTCACGCAACTT
DNA 2: AAGTTGCGTGACAAGTGGTAGGAAAGTGTGAAGAGTGAAGGTGGCGAT
binding result: binds
